From patent US20050009042A1 (AVENTIS PHARMA S A, published 2005)

T1: MT2R-Luc, protein from fusion of the melatonin receptor MT2 with luciferase (UniProt P49286 1-362)
T1 construct: whole, on cells; Control fusion protein; also called melatonin-Luc MT2 receptor
T1 sequence (looked up): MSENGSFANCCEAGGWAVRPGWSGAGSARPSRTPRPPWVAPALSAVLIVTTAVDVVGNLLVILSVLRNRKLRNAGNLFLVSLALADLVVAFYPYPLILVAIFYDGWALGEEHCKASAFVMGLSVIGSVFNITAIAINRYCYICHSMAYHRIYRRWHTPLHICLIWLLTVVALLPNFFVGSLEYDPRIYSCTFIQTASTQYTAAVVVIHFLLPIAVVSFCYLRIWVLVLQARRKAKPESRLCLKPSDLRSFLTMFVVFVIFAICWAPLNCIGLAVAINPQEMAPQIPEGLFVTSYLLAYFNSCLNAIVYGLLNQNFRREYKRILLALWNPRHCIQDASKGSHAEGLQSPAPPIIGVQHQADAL

B1: OB-RGRP-YFP (other)
chain: MAGVKALVALSFSGAIGLTFLMLGCALEDYGVYWPLFVLIFHAISPIPHFIAKRVTYDSDATSSACRELAYFFTTGIVVSAFGFPVILARVAVIKWGACGLVLAGNAVIFLTIQGFFLIFGRGDDFSWEQW
notes: Expressed in HeLa or HEK cells from pcDNA3-OB-RGRP-YFP; also called OB-RGRP tagged with YFP at its C-terminal tail; OB-RGRP-YFB; not shown: YFP coding region from vector pGFPtpz-N1 (Cytogem-Topaze, Packard)
B2: OB-RGRP-Luc (other)
chain: B1 chain
notes: Expressed in cells from pcDNA3-OB-RGRP-Luc; also called OB-RGRP-Rluc; not shown: Renilla luciferase, coding region from vector pRL-CMV (Promega)
B3: YFP-OB-RGRP (other)
chain: B1 chain
notes: The construction of this plasmid is not described on its own; only the double fusion YFP-OB-RGRP-Luc is; also called OB-RGRP tagged at the N-terminal with YFP; not shown: YFP (Topaz, from pGFPtpz-N1) at the N-terminus
B4: 6Myc-OB-RGRP (4TM) (other)
chain: B1 chain
notes: not shown: The N-terminal 6xMyc tag (the 6myc fragment of pCDNA3-RSV-6Myc) and its junction
B5: MYO47-Luc (other)
chain: MAGIKALISLSFGGAIGLMFLMLGCALPIYNKYWPLFVLFFYILSPIPYCIARRLVDDTDAMSNACKELAIFLTTGIVVSAFGLPIVFARAHLIEWGACALVLTGNTVIFATILGFFLVFGSNDDFSWQQW
notes: also called MY047-Rluc; not shown: Renilla luciferase (vector pcDNA3-Rluc)
B6: MYO47-YFP (other)
chain: B5 chain
notes: also called MY047-YFP; not shown: YFP (Topaz, vector pcDNA3-YFP)

Columns and labels:
[1] = target: OB-Rl; test: cell-based or functional assay
[2] = target: the molecule itself; test: SDS-PAGE and anti-YFP immunoblot of HeLa cell lysates, with or without DSP crosslinker; self-association
Procedure: (§1) Study of the oligomerization of OB-RGRP with SDS-PAGE experiments and immunoprecipitations. FIG. 4a: the cells expressing the fusion proteins indicated were treated or not treated with 2 mmol.L⁻¹ dithiobis(succinimidyl propionate) (DSP) in PBS (1×, pH7.4) in order to crosslink the protein complexes. The proteins were separated by SDS-PAGE and the proteins from fusions with YFP were detected using a specific anti-YFP antibody. FIG. 4b: the cells expressing the construct 6Myc-OB-RGRP were solubilized with 1% of digitonin or 5% of SDS and the solubilized material was immunoprecipitated with an anti-myc antibody. The precipitates were subjected to separation by SDS-PAGE and the proteins tagged with myc were detected with an anti-myc antibody.
(§2) The total lysates were prepared by washing the cells once with cold PBS (pH 7.4) and denatured by adding loading buffer (30 mmol.L⁻¹ Tris HCl, pH 6.8, 1% glycerol, 5% SDS, 50 mmol.L⁻¹ DTT and 0.05% bromophenol blue). The total lysates or the immunoprecipitates were incubated for 10 minutes at 90° C. and then loaded onto 10% acrylamide gel for separation by electrophoresis (SDS-PAGE).
OB-RGRP was tagged with YFP at its C-terminal tail and expressed in HeLa cells. The proteins were separated by polyacrylamide gel electrophoresis under denaturing conditions (SDS-PAGE) and immunoblotting experiments were carried out with an anti-YFP antibody. […]

[3] = target: B2; test: BRET in living HEK cells; the signal also rises hyperbolically to saturation with the OB-RGRP-YFP/OB-RGRP-Luc ratio
Procedure: (§3) Study of the oligomerization of OB-RGRP in live HEK cells, by BRET technology. FIG. 6a: the fusion proteins indicated were coexpressed at an equimolar ratio, and BRET measurement experiments were carried out. FIG. 6b: constant amounts of the plasmid OB-RGRP-Luc were coexpressed with increasing amounts of the plasmid OB-RGRP-YFP and BRET measurements were carried out. MT2R-Luc, protein from fusion of the melatonin receptor MT2 with luciferase.
(§4) 48 h after transfection, the COS-7, HeLa or HEK 293 cells expressing the OB-R fusion proteins were detached and washed in PBS. 1-2×10⁵ cells were distributed into wells of optiplate plates (96-well, Packard Instrument Company, Meriden, Conn.) in the presence or absence of the ligands, and incubated at 25° C. Alternatively, the same procedure was carried out with membranes prepared from the cells expressing the various constructs. The substrate, coelenterazine h (Molecular Probes, Eugene, Oreg.), was added at a final concentration of 5 μmol.L⁻¹ and the readings were carried out with a Fusion™ luminometer/fluorimeter (Packard Instrument Company, Meriden, Conn.), which makes it possible to measure luminescence through two filters (luciferase filter: 485±10 nm; YFP filter: 530±12.5 nm). […] The results are expressed as milliBRET units (mBU), 1 mBRET corresponding to the values of the differences in the ratios multiplied by 1000. […]

[4] = target: T2, construct of the insulin receptor tagged with Luc (UniProt P06213 28-1382); test: BRET in living cells, equimolar coexpression
T2 construct: whole, on cells; Control fusion protein; also called IR-Luc
Procedure: (§5) 48 h after transfection, the COS-7, HeLa or HEK 293 cells expressing the OB-R fusion proteins were detached and washed in PBS. 1-2×10⁵ cells were distributed into wells of optiplate plates (96-well, Packard Instrument Company, Meriden, Conn.) in the presence or absence of the ligands, and incubated at 25° C. Alternatively, the same procedure was carried out with membranes prepared from the cells expressing the various constructs. The substrate, coelenterazine h (Molecular Probes, Eugene, Oreg.), was added at a final concentration of 5 μmol.L⁻¹ and the readings were carried out with a Fusion™ luminometer/fluorimeter (Packard Instrument Company, Meriden, Conn.), which makes it possible to measure luminescence through two filters (luciferase filter: 485±10 nm; YFP filter: 530±12.5 nm). The BRET ratio was defined as the difference in emission at 530 nm/485 nm of the cells cotransfected with the Luc and YFP fusion proteins and the emission at 530 nm/485 nm of the Luc fusion protein transfected alone into the cells. The results are expressed as milliBRET units (mBU), 1 mBRET corresponding to the values of the differences in the ratios multiplied by 1000.
(§6) We used BRET technology to study a possible interaction between OB-R and OB-RGRP in living cells. An energy transfer was constitutively observed in the cells coexpressing the OB-Rₛ-Luc construct and the OB-RGRP-YFP construct, indicating proximity of the interaction partners (FIG. 7). The same results were obtained in cells coexpressing OB-Rₛ-Luc and the MYO47-YFP construct, and also in the reverse orientation: in cells coexpressing OB-RGRP-Luc and OB-Rₛ-YFP, or in cells coexpressing MYO47-Luc and OB-Rₛ-YFP. The specificity of these interactions was confirmed by the lack of energy transfer between OB-Rₛ-Luc, OB-RGRP-Luc, MYO47-Luc and a construct of the insulin receptor tagged with YFP (Boute et al. (2001) Mol Pharmacol 60, 640-645), and also in the reverse orientation: by the lack of energy transfer between a construct of the insulin receptor tagged with Luc and the OB-Rₛ-YFP, OB-RGRP-YFP and MYO47-YFP construct.

[5] = target: T1, MT2R-Luc, protein from fusion of the …; test: BRET in living HEK cells, equimolar coexpression
Procedure: as §3, §4

[6] = target: T3, IR-YFP, protein from fusion of the insulin receptor with YFP (UniProt P06213 28-1382); test: BRET in living cells, equimolar coexpression
T3 construct: whole, on cells; Control fusion protein; also called construct of the insulin receptor tagged with YFP; not shown: YFP
Procedure: as §5, §6

[7] = target: the molecule itself; test: SDS-PAGE and anti-YFP immunoblot; self-association
Procedure: as §1, §2

[8] = target: B2; test: BRET in living HEK cells, equimolar coexpression
Procedure: as §3, §4

[9] = target: the molecule itself; test: anti-myc immunoprecipitation, SDS-PAGE and anti-myc blot; self-association

## leptin (ligand)
[1]
  activation of a luciferase reporter gene under STAT3-response elements, EC50: 0.05 nM
  activation of a luciferase reporter gene under STAT5-response elements, EC50: 0.05 nM
  increase in the basal activation of the reporter gene for STAT3: 1.5 fold

## B1
[2]
  binding result: binds
[3]
  binding result: binds
[4]
  binding result: no binding
[5]
  binding result: no binding

## B2
[6]
  binding result: no binding

## B3
[7]
  binding result: binds
[8]
  binding result: binds

## B4
[9]
  binding result: binds

## B5
[6]
  binding result: no binding

## B6
[4]
  binding result: no binding
